± gives the standard deviation of the averaged measurements.

Data set [1] relates to Saccharomyces cerevisiae. Briefly: protein stability index of tFT-peptide fusion in deletion strain of DAS1 (PSI (0-1 scale)); higher = more stable (slower turnover). How it is done: (§1)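 MPS profiling in S. cerevisiae of two library types built from selected 12-aa C-degron peptides (IN1, IN2, LN1, LN3, VN2, R1-R5, W1-W3, Atg1 and Rpa12 C-termini): saturation mutagenesis libraries and C-terminal +1 capping libraries (13 aa). Each peptide is fused to the C-terminus of a sfGFP-mCherry timer, after a GGGS linker. Cells are FACS-sorted into 8 mCherry/sfGFP bins and sequenced. PSI runs from 0 (unstable) to 1 (stable), measured once in wild type and in the das1Δ or doa10Δ background.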

Data set [2] concerns Saccharomyces cerevisiae. Briefly: protein stability index of tFT-peptide fusion in wild type (PSI (0-1 scale)); higher = more stable (slower turnover). The following applies: genetic background: wild type. How it is done:
as §1

Data set [3] has as its system Saccharomyces cerevisiae. Briefly: protein stability index of tFT-peptide fusion (C-terminal peptide) (PSI (0-1 scale)); higher = more stable (slower turnover). The following applies: temperature: 30 C. How it is done: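 MPS profiling in S. cerevisiae of the yeast C-terminome library: the last 12 aa of each annotated ORF are fused to the C-terminus of a sfGFP-mCherry timer, after a GGGS linker. Cells are FACS-sorted into 8 mCherry/sfGFP bins and deep-sequenced. PSI runs from 0 (unstable) to 1 (stable); wild type and das1Δ backgrounds, two technical replicates each.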

[4] abbreviates: genetic background: das1 deletion.
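Wherever protein stability index of tFT-peptide fusion in deletion strain of DAS1 is given: PSI is a weighted mean of each variant's read distribution over the sorted stability bins, computed only for variants having over 10 reads in total.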
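Wherever protein stability index of tFT-peptide fusion in wild type is given: PSI derived as read-weighted mean over the 8 sorting bins, only variants exceeding 10 total reads kept, mCherry placed adjacent to the peptide and sfGFP distal.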

With AMWRVGLWRGAS, the protein stability index in data set [1] turned out to be 0.65; in data set [2], 0.43.
Taken in the same sequence, the figures for AQWRVGLWRGAS were 0.709 and 0.499.
Consider TVDYIASNPDAN [ACP1 C-terminal 12 aa], for which the protein stability index was determined as 0.696 ± 0.0025 in data set [3] (setting [4]) and 0.736 ± 0.038 in data set [3] (genetic background: wild type).
Consider TVGIHSPIDEKC [ATG4 C-terminal 12 aa], for which the protein stability index in data set [3] (setting [4]) turned out to be 0.699 ± 0.013; in data set [3] (genetic background: wild type) it was 0.669 ± 0.015.
TVVDARIDGRGK [PHB2 C-terminal 12 aa]: the protein stability index worked out at 0.6724 ± 0.0014 in data set [3] (setting [4]) and 0.708 ± 0.045 in data set [3] (genetic background: wild type).
As to TYSEREGNLLNS [RPR2 C-terminal 12 aa], the protein stability index in data set [3] (setting [4]) was 0.7159 ± 0.0046; in data set [3] (genetic background: wild type) it was 0.675 ± 0.0073.
On the same counts, the results for VASLPSRYSRYD [ALR1 C-terminal 12 aa] are 0.711 ± 0.024 and 0.654 ± 0.013.
In the case of VDKLAGVRVLPV [GOT1 C-terminal 12 aa], the protein stability index in data set [3] (setting [4]) turned out to be 0.67 ± 0.01; in data set [3] (genetic background: wild type), 0.704 ± 0.019.
For the sequence VEKKKVLSKITL [VPH2 C-terminal 12 aa], the protein stability index amounted to 0.691 ± 0.033 in data set [3] (setting [4]) and 0.691 ± 0.048 in data set [3] (genetic background: wild type).
Regarding VESTRETGGCNC [YPT53 C-terminal 12 aa], the values for the protein stability index in data set [3] (setting [4]) and in data set [3] (genetic background: wild type) were 0.692 ± 0.027 and 0.65486 ± 0.00056, respectively.
For VFQRAIEKALGE [STR2 C-terminal 12 aa], the protein stability index in data set [3] (setting [4]) stood at 0.707 ± 0.011; in data set [3] (genetic background: wild type), 0.716 ± 0.013.
With VFSKKEPFPHSK [YJR084W C-terminal 12 aa], the protein stability index worked out at 0.721 ± 0.019 in data set [3] (setting [4]) and 0.771 ± 0.059 in data set [3] (genetic background: wild type).
Take VGITSVGTRGNY [YNL140C C-terminal 12 aa]: the protein stability index in data set [3] (setting [4]) was determined as 0.674 ± 0.015; in data set [3] (genetic background: wild type), 0.717 ± 0.097.
Take VGNYFMAIQRLN [COQ3 C-terminal 12 aa]: the protein stability index in data set [3] (setting [4]) was determined as 0.731 ± 0.025; in data set [3] (genetic background: wild type), 0.16 ± 0.017.
With VIASDESSHLSY [YHR127W C-terminal 12 aa], the values for the protein stability index in data set [3] (setting [4]) and in data set [3] (genetic background: wild type) were 0.709 ± 0.017 and 0.699 ± 0.024, respectively.
Taken in the same sequence, the figures for VKDLYKRLTIQA [GPI1 C-terminal 12 aa] were 0.518 ± 0.018 and 0.0975 ± 0.0091.
Taken in the same sequence, the figures for VKHAEYAINAFF [YPR147C C-terminal 12 aa] were 0.709 ± 0.018 and 0.682 ± 0.026.
Regarding VKHQPKTYRTKK [SGO1 C-terminal 12 aa], the figures for the protein stability index in data set [3] (setting [4]) and in data set [3] (genetic background: wild type) were 0.676 ± 0.015 and 0.677 ± 0.053, respectively.
Consider VKRNKYPPRPVH [REF2 C-terminal 12 aa], for which the protein stability index in data set [3] (setting [4]) was 0.704 ± 0.023; in data set [3] (genetic background: wild type), 0.74 ± 0.0081.
Take VKSDSGSSCTIM [RHO3 C-terminal 12 aa]: the values for the protein stability index in data set [3] (setting [4]) and in data set [3] (genetic background: wild type) were 0.721 ± 0.011 and 0.711 ± 0.023, respectively.
Take VKTKFFPLSSSI [YDR199W C-terminal 12 aa]: the values for the protein stability index in data set [3] (setting [4]) and in data set [3] (genetic background: wild type) were 0.738 ± 0.02 and 0.716 ± 0.026, respectively.
With “VKWKVLCDLGWT [YIL047C-A C-terminal 12 aa]”, the figures for the protein stability index in data set [3] (setting [4]) and in data set [3] (genetic background: wild type) were 0.715 ± 0.023 and 0.708 ± 0.028, respectively.
As to VKYSRIIPPDIR [SUM1 C-terminal 12 aa], the protein stability index in data set [3] (setting [4]) stood at 0.72 ± 0.017; in data set [3] (genetic background: wild type), 0.69 ± 0.032.
In the case of VLDEEFRNNNAS [RAD26 C-terminal 12 aa], the protein stability index in data set [3] (setting [4]) stood at 0.716 ± 0.0098; in data set [3] (genetic background: wild type), 0.69 ± 0.038.
Turning to VLELSLGFTKLD [MON2 C-terminal 12 aa], the protein stability index in data set [3] (setting [4]) was 0.7141 ± 0.0071; in data set [3] (genetic background: wild type), 0.707 ± 0.041.
Take VLFLEDNGFFVF [MET3 C-terminal 12 aa]: the values for the protein stability index in data set [3] (setting [4]) and in data set [3] (genetic background: wild type) were 0.765 ± 0.024 and 0.775 ± 0.037, respectively.
As to VLIKHDHTNTHI [MMT1 C-terminal 12 aa], the protein stability index in data set [3] (setting [4]) stood at 0.703 ± 0.028; in data set [3] (genetic background: wild type) it was 0.701 ± 0.034.
As to VMEEEEQDCKCI [POP8 C-terminal 12 aa], the values for the protein stability index in data set [3] (setting [4]) and in data set [3] (genetic background: wild type) were 0.6923 ± 0.00099 and 0.6519 ± 0.0055, respectively.
Taken in the same sequence, the figures for VMGQFLPIFEMD [GSM1 C-terminal 12 aa] were 0.724 ± 0.031 and 0.713 ± 0.0046.
Taken in the same sequence, the figures for VRILTKYPKILV [RIM101 C-terminal 12 aa] were 0.488 ± 0.021 and 0.5 ± 0.0066.
For VSGKKFQNVRVL [YPL247C C-terminal 12 aa], the results for the protein stability index in data set [3] (setting [4]) and in data set [3] (genetic background: wild type) were 0.705 ± 0.01 and 0.676 ± 0.04, respectively.
Turning to VSLDNLPGVEKK [SUA7 C-terminal 12 aa], the results for the protein stability index in data set [3] (setting [4]) and in data set [3] (genetic background: wild type) were 0.682 ± 0.022 and 0.683 ± 0.014, respectively.

Values taken from the supplement of paper PMC10724198.
